Source: patent publication US20240287527, “VIRAL PROTEIN […] […] AND METHODS OF USE IN DIAGNOSTICS, […] PURPOSES” (AYASS BIOSCIENCE LLC, published 2024)
Residue numbers refer to the chain shown, from its start.

B1: AYA2012004_L-M1 (ssDNA)
DNA: TAGGGAAGAGAAGGACAATGATTTTGGGCGGGTTGA
B2: SB3L (AYA2012004_L) (ssDNA)
DNA: TAGGGAAGAGAAGGACAATGATTTTGGGCGGGTTGAGGTGGGGGAGGAGGAGGTAGTTAGAGTTGACTAGTACATGACCACTTGA
B3: AYA2012004_L-M2 (structured_DNA)
DNA 1: TTTTTTAGGGAAGAGAAGGACAATGATTTTGGGCGGGTTGA
DNA 2: B3 DNA 1 with T1A, T2A, T3A, T4A, T5A

Key:
[1] = target: SARS-CoV-2 full-length S protein on lentiviral VLP (SARS-CoV-2, UniProt P0DTC2 P0DTC2:14-1273); experiment: cell_activity; conditions: protein: virion, tags: GenTarget VLP001, GFP reporter VLP, chain copies: 3 (inferred)
[2] = target: SARS-CoV-2 nucleocapsid protein (SARS-CoV-2, UniProt P0DTC9 P0DTC9:1-419); experiment: SPR; conditions: tags: AcroBiosystems C5227 / RayBiotech 230-01104
ACE2/ACEH = ACE2/ACEH (Homo sapiens, UniProt Q9BYF1 Q9BYF1:18-740); experiment: SPR; conditions: tags: Fc-tag, ACRO Biosystems AC2-H5257; chain copies: 2

Binder | activity [1] [% inhibition] | binding result [2] | binding result (ACE2/ACEH) | activity ([1]; label: 5'-biotin, two hairpins (predicted)) [% inhibition]
B1 | ~50 | no binding | no binding | 
B2 |  | no binding | no binding | ~70
B3 | ~60 | no binding | no binding | 
